Results reported in IntAct's records for PubMed 35512704.

B1: Speckle-type POZ protein (Homo sapiens), O43791 (parent)
chain: MSRVPSPPPPAEMSSGPVAESWCYTQIKVVKFSYMWTINNFSFCREEMGEVIKSSTFSSGANDKLKWCLRVNPKGLDEESKDYLSLYLLLVSCPKSEVRAKFKFSILNAKGEETKAMESQRAYRFVQGKDWGFKKFIRRDFLLDEANGLLPDDKLTLFCEVSVVQDSVNISGQNTMNMVKVPECRLADELGGLWENSRFTDCCLCVAGQEFQAHKAILAARSPVFSAMFEHEMEESKKNRVEINDVEPEVFKEMMCFIYTGKAPNLDKMADDLLAAADKYALERLKVMCEDALCSNLSVENAAEILILADLHSADQLKTQAVDFINYHASDVLETSGWKSMVVSHPHLVAEAYRSLASAQCPFLGPPRKRLKQS
partner: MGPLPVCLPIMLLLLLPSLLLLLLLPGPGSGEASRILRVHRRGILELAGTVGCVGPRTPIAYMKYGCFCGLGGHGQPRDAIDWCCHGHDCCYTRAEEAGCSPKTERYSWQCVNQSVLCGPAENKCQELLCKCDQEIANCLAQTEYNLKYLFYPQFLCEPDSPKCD
B2: Speckle-type POZ protein (Homo sapiens), O43791 (parent)
chain: B1 chain
partner: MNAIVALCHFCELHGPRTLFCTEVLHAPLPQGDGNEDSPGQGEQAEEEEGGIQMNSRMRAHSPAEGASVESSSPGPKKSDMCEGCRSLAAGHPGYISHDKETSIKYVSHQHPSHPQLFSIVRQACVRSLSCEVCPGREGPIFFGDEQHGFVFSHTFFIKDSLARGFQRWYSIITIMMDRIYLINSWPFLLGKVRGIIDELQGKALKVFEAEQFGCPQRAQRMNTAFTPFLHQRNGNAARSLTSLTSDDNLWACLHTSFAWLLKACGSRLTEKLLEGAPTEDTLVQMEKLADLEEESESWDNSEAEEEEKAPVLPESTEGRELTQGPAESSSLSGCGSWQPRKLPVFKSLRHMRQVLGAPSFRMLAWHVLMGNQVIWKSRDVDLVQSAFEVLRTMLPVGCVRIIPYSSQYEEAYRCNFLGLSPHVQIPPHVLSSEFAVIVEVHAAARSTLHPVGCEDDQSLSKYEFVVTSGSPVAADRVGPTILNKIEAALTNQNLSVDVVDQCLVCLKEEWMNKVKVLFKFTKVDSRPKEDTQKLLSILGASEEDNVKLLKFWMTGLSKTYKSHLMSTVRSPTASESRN
B3: Speckle-type POZ protein (Homo sapiens), O43791 (parent)
chain: B1 chain
partner: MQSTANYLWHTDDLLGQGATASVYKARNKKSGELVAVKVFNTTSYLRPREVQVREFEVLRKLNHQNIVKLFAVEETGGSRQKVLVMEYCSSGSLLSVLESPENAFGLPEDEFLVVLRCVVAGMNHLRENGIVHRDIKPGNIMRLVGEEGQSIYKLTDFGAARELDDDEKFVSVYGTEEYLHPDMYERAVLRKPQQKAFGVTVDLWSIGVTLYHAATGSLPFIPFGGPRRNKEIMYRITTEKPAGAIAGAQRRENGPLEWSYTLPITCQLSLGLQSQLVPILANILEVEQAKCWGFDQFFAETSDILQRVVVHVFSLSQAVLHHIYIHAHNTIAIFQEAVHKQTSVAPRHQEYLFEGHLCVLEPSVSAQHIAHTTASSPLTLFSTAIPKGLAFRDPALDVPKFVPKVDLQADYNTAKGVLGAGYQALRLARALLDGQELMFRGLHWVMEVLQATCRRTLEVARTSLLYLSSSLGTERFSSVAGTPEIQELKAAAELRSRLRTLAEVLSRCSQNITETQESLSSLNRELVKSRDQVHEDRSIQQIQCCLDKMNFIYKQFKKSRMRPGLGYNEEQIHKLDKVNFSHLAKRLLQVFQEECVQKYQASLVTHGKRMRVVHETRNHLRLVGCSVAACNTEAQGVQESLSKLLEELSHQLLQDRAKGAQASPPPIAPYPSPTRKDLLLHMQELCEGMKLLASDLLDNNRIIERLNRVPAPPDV
B4: Speckle-type POZ protein (Homo sapiens), O43791 (parent)
chain: B1 chain
partner: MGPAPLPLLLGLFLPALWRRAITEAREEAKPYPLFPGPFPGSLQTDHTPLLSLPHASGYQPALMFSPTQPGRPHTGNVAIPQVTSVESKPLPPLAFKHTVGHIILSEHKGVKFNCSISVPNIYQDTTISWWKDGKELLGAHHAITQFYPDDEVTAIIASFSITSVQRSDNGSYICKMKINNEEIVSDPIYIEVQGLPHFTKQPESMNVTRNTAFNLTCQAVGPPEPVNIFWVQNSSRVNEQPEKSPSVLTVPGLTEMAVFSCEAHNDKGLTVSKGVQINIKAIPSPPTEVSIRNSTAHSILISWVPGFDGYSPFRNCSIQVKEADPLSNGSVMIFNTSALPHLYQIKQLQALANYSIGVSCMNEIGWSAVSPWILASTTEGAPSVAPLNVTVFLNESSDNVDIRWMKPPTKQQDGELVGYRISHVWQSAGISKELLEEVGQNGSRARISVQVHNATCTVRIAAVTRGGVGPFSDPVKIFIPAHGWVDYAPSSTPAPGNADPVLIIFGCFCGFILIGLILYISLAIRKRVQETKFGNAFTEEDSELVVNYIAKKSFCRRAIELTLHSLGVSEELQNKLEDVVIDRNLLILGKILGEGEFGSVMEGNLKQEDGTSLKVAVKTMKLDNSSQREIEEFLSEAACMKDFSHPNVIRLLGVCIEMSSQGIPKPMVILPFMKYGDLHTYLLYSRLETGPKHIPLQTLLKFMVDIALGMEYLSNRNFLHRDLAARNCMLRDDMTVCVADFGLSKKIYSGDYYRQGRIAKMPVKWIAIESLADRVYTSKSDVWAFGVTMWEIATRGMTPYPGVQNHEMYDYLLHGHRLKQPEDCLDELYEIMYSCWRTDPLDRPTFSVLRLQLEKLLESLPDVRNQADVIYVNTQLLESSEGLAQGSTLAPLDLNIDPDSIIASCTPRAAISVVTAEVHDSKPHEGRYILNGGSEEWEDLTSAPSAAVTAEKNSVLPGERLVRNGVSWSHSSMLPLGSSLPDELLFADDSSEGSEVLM
B5: Speckle-type POZ protein (Homo sapiens), O43791 (parent)
chain: B1 chain
partner: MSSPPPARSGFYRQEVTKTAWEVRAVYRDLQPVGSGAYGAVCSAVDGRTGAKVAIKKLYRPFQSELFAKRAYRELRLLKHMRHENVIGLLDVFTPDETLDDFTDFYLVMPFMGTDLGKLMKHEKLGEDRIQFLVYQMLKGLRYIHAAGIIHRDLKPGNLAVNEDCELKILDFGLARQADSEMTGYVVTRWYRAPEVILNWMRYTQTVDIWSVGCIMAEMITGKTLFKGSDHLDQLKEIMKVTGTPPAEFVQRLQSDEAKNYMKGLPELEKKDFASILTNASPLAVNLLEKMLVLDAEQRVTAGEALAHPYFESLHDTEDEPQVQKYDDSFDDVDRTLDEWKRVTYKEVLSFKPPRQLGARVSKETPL
B6: Speckle-type POZ protein (Homo sapiens), O43791 (parent)
chain: B1 chain
partner: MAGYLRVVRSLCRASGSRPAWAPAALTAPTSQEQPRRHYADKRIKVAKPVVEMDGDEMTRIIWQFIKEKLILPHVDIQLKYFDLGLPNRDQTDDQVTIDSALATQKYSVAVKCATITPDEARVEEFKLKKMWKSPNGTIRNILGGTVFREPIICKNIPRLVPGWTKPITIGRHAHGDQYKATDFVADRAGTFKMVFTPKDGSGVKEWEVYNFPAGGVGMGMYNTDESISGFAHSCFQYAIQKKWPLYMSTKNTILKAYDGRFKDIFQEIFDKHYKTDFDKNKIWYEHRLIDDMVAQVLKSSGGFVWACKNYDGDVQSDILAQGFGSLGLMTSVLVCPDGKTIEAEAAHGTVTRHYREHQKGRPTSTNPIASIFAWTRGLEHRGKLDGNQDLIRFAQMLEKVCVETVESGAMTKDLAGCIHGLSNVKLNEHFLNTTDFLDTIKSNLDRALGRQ

Variants of: B1
Conditions: with pa2gx_human PLA2G10, O15496
In the case of Y87C, the “effect of a mutation on the interaction” value is reported as “with no effect”.

Variants of: B1
Conditions: with pa2gx_human PLA2G10, O15496
Remark: another data set of the same source
In the case of F133V, the “effect of a mutation on the interaction” value is reported as “with no effect”.

Variants of: B1
Conditions: with pa2gx_human PLA2G10, O15496
Remark: another data set of the same source
In the case of F133L, the “effect of a mutation on the interaction” value is reported as “with no effect”.

Variants of: B1
Conditions: with pa2gx_human PLA2G10, O15496
Remark: another data set of the same source
For F102C, the “effect of a mutation on the interaction” value was “with no effect”.

Variants of: B2
Conditions: with flcn_human FLCN
With F133V the “effect of a mutation on the interaction” value was “with no effect”.

Variants of: B2
Conditions: with flcn_human FLCN
Remark: another data set of the same source
F133L was tested, and the “effect of a mutation on the interaction” value was “with no effect”.

Variants of: B2
Conditions: with flcn_human FLCN
Remark: another data set of the same source
F102C was tested, and the “effect of a mutation on the interaction” value was “with no effect”.

Variants of: B2
Conditions: with flcn_human FLCN
Remark: another data set of the same source
Y87C was tested, and the “effect of a mutation on the interaction” value was “with no effect”.

Variants of: B3
Conditions: with ikke_human IKBKE
In the case of Y87C, the “effect of a mutation on the interaction” value is reported as “with no effect”.

Variants of: B3
Conditions: with ikke_human IKBKE
Remark: another data set of the same source
With F133V the “effect of a mutation on the interaction” value was “with no effect”.

Variants of: B3
Conditions: with ikke_human IKBKE
Remark: another data set of the same source
In the case of F133L, the “effect of a mutation on the interaction” value is reported as “with no effect”.

Variants of: B3
Conditions: with ikke_human IKBKE
Remark: another data set of the same source
For F102C, the “effect of a mutation on the interaction” value was “with no effect”.

Variants of: B4
Conditions: with mertk_human MERTK
F102C was tested, and the “effect of a mutation on the interaction” value was “with no effect”.

Variants of: B4
Conditions: with mertk_human MERTK
Remark: another data set of the same source
For F133V, the “effect of a mutation on the interaction” value was “with no effect”.

Variants of: B4
Conditions: with mertk_human MERTK
Remark: another data set of the same source
F133L was tested, and the “effect of a mutation on the interaction” value was “with no effect”.

Variants of: B4
Conditions: with mertk_human MERTK
Remark: another data set of the same source
In the case of Y87C, the “effect of a mutation on the interaction” value is reported as “with no effect”.

Variants of: B5
Conditions: with mk12_human MAPK12, P53778
For F102C, the “effect of a mutation on the interaction” value was “with no effect”.

Variants of: B5
Conditions: with mk12_human MAPK12, P53778
Remark: another data set of the same source
In the case of F133L, the “effect of a mutation on the interaction” value is reported as “with no effect”.

Variants of: B5
Conditions: with mk12_human MAPK12, P53778
Remark: another data set of the same source
In the case of F133V, the “effect of a mutation on the interaction” value is reported as “with no effect”.

Variants of: B5
Conditions: with mk12_human MAPK12, P53778
Remark: another data set of the same source
Y87C was tested, and the “effect of a mutation on the interaction” value was “with no effect”.

Variants of: B6
Conditions: with idhp_human IDH2, P48735
For Y87C, the “effect of a mutation on the interaction” value was “with no effect”.

Variants of: B6
Conditions: with idhp_human IDH2, P48735
Remark: another data set of the same source
For F133L, the “effect of a mutation on the interaction” value was “with no effect”.

Variants of: B6
Conditions: with idhp_human IDH2, P48735
Remark: another data set of the same source
For F133V, the “effect of a mutation on the interaction” value was “with no effect”.
